Data published in the nanobody polyreactivity screen of Harvey et al. (2022).

Experiment: yeast display, Sf9 membrane polyspecificity reagent, FACS + sequencing; frameworks hold sequencing errors
Method in brief: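 A synthetic nanobody library was expressed on Saccharomyces cerevisiae BJ5465 by galactose induction for 36–48 hours. The library was stained for 1 hour at 4 °C with 10% biotinylated, detergent-solubilized Sf9 membrane reagent and enriched with streptavidin microbeads before FACS. Low and high (top ~1%) gates were set on anti-HA fluorescence for expression and streptavidin fluorescence for reagent binding, and each polyreactivity label reflects the gate of origin.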

Row | Sequence | polyreactivity (PSR sort gate)
1 | QVQLVESGGGLVQAGGSLRLSCAASGRIFVSYAMGWYRQAPGKERELVAAITYSVDSTYYADSVKGRFTISRDNAKNTVYLQMNSLKPEDTAVSYCATDVDWAYGYQYEYWGQGTQVTVSS | low polyreactivity
2 | QVQLVESGGGLVQAGGSLRLTCAASGGTFGSYAMGWYRPAPGKERELVAVISSGGSTYYADSVKGRFTISRDNAKNTVYLQMNSLKPEDTAVYYCARRTRTTRGKNGYWGQGTKVTVSS | high polyreactivity
3 | QVQLVESGGGLVQAGGSLRLSCAASGFIFRRYAMGWYRQAPGKERELVAIITSGVRTYSADSVKGRFTISRDNAKNTVYLQMNSLKPEDTAVYYCAARVKDYPEYDYWGQGTQVTVSS | low polyreactivity
4 | QVQLVESGGGLVQAGGSLRLSCAASGSIFDWNGMGWYRQAPGKERELVAAITWRGGRTYYADSVKGRFTISRDNAKNTVYLQMNSLKPEDTAVYYCAATRFFYSRYNYWGQGTQVTVSS | high polyreactivity
5 | QLQLVESGGGLVQAGGSLRLSCAASVFTFYVNAMGWYRQAPGKERELVAAISSSGTRTYYADSVKGRFTISRDNAKNTVYLKMNSMKPEDTAVYYCAARAYQHYKWGQGTQVTVSS | high polyreactivity
6 | QVQLVYSGGGLVKAGGTLRLSCAASGSTFTPNAMGWYRQAPGKERELVAAINWSDSSTYYADSVKGRFTISRDNAKNTVYLQMNSLIPEDTAVYYCAAAAQYGQLQVPVYYWGEGTQVTVSS | low polyreactivity
7 | QVQLVESGGGLVQAGGSLRLSCAASGSTFPSYAMGWYRQAPGKERELVASITSSGGSTYYADSVKGRFTISRDNAKNTVYLQMNSLKPEDTAVYYCNARRYYYSWGREGGYWGQGTQVTVSS | low polyreactivity
8 | QVQLVESGGGLVQAGGSLRLSCAASGFIFKVNAMGWYRQAPGKERGYVYADSVKGRFTISRDNAKNTVYLQMNSLKPEHTAVYYCAAEPGEGCDYWGQATQVTVSS | low polyreactivity
9 | QVQLVESGGGLVQARGSLRLSCAASGSIFSIYAMGWYRPAPGTERELVASITRSSGRTYYADSVKGRFTISRDNAKNTVYLQMISLKPEDTAVYYCAKDYIPLALDADDYWGQGTQVTVSS | low polyreactivity
10 | QVQLVESGGGLVQAGGSLRLSCAASGRIFYVYAMGWYRQAPGKERELVAAITWRGGTTYYADSVKGRFTISRDNAKNTVYLQMNSLKPEDTAVYYCNAKYFRSYYSIEYDYWGQGTQVTVSS | low polyreactivity
11 | QVQLVESGGGLVQAGGSLRLSCAASGNTFYPKDMGWYRQAPGKERELVAAITTNDGDTYYADSVKGRFTISRDNAKNTVYLQMNRLKPEDTAVYYCAADSGSTSEYEYWGQGTQVTVSS | low polyreactivity
12 | QVQLVESGGGLVQAGGSLRLSCAASGNIFDRYVMGWYRQAPGKERELVAAISVSGGSTYYADSVKGRFTISRDNAKNTVYLQMNSLKPEDTAVYYCAAHSRLINWYDYWGQGTQVTVSS | high polyreactivity
13 | QVQLVESGGGLVQAGGSLRLSCAASGFTLYRYVMGWYRQAPGKERELVAAITWSGGSTYYADSVKGRFTISRDNAKNTVYLQMNSLKPEDTAVYYCAARLNVRGWGQGTQVTVSS | low polyreactivity
14 | QVQLVESGGGLVQAGGSLRLSCTASGITSGSYAMGWYRQAPGKERELVAAISNSGSTYYADSVKGRFTISRDNAKNSVYLQMNSLKPEDTAVYYCNADDWWGGYDYWGQGTQVTVSS | low polyreactivity
15 | QVQLVESGGGLVQAGGSLRLSCAASGLIFRFYAMGWYRQAPGKERELVAAISSRGGSTYYADSVKGRFTISRDNAKNTVYLQMNSLKPEDTAVYYCAAVFSLIASSYDYWGQGTQVTVSS | high polyreactivity
16 | QVQLVESGGGLVQAGGSLRLSCAASGSTFKHYAMGWYRQAPGKERELVAAISSGGSTKYADSVKGRFTISRDNAKNTVYLQMNSLKPEDTAVYYCAARSFFKMYYWGQGTQVTVSS | low polyreactivity
17 | QVKLVDTGGGLVKAGGSLLLSCAASGSPFVWYGMGWYRQSHGKEREFDAAISTSGGRTYYADSVKGRFTISRDNAKNTVYLQMNSLKPEDTAVYYCARQPRLYFKGKLYGYWGQGTQVTVSS | high polyreactivity
18 | QVQLVESGGGLVQAGGSLRLSCAASGSTFSYNAMGWYRQAPGKERELVAAITSTGRTYYADSVKGRFTITRDNAKNTVYLQMISLKPEDTAGYYCNKVYYRFYSADFGYGWYLRYDYWGQGTQVTVSS | high polyreactivity
19 | QVQLVESGGGLVQAGGSLRLSCAASGSTFVKYVMGWYRQAPGKERELVAAISWSGGSTYYADSVKGRFTISRDNAKNTVYLQMNSLKPEDTAVYYCAAVNWYDSYAKYYWGQGTQVTVSS | high polyreactivity
20 | QVQLVESGGRVLQAGGSLRLSCAASGRIFSYNDMGWYRQAPGKERELVATITSGDSTISADSVKGRFTISRDNAKNTVYLQMNSLKPEDTAVYYCATDIYGLPVDYWGQGTQVTVSS | low polyreactivity
21 | QVQLVESGGGLVQAGGSLRLSCAASGSIFLAYDMGWYRQAPGKERELVAGITSGGTTYYADSVKGRFTISRDNAKNTVYLQMNSLKPEDTAVYYCAVEPVFIVSEVLFDYWGQGTQVTVSS | low polyreactivity
22 | QVQLVESGGRLVQAGGSLRLSGAASVLTFNFNAMGWYRQAPGKERELVAANSYRAGSTYYADSVKGRFTISRDNAKNTVYLQMNSLKPEDTAVYYCAKPTYRFYWGDFDYWGQGTQVTVSS | low polyreactivity

Row | Sequence | polyreactivity (PSR sort gate)
23 | QVQLVESGGGLVQAGGSLRLTCAASGSTFVWYGMGWYRQAPGKEREFVAAISTSGGRTYYADSVKGRFTISRDNAKNTVYLQMNSLKPEDTAVYYCATRPYFTYRWYDYWGQGTQVTVSS | high polyreactivity
24 | QVQLVESGGGLVQAGGSLRLRCAASGSIFEEYAMGWSRPAPGKERELVAAITSRGGSTYYADSVKGRFTISRDNAKNNVYLQMNSLKPEDTAVYYCAAGVASLTTGSYDYWGQGTQVTVSS | low polyreactivity
25 | RVQLVESGGGLVKAGGSLRLSCAASGSIFYQYTMGWYRQAPGKERELVATISWSDVSTYYADSVKGRFTISRDNAKNTVYLQMNSLKPEDTAVYYCAALYWGWDRYYGYDYWGQGTQVTVSS | low polyreactivity
26 | QVQLVESGGGLVQAGGSLRLTCDASGSIFSVYAMGWYRQAPGKERELVAAITSSGGITYYADSVKGRFTISRDNSKNTVYLQMNSLKPEDTAVYYCATDRVLHYWVLSMDYWGQGTQVTVSS | low polyreactivity
27 | QVQLVESGGGLVQAGGSLRLSCAASGSIFGYNAMGWYRQAPGKEREFVAAISWSGGRTYYADSVKGRFTISRDNAKYTVYLQMNSLKPEDTAVYYCAAPSRPAPRFDYWGQGTQVTVSS | low polyreactivity
28 | QVQLVESGGGLVQAGGSLRLSCAASGSIFQYNVKGWYRQEPGKEREFVADISSSGGSTYYADSVKGRFTISRDNAKNTVYLQMNSLKPEDTAVYYCNADPGYVFYRDEYWGQGTQVTVSS | low polyreactivity
29 | QVQLVESGGGLVQAGGSLRLSCAASGFIFQRNAMGWYRQAPGKERELVAAIRGTGGSTYYADSVKGRFTISRDNAKNTVYLQMNSLKPEDTAVYYCNRLSSYHMDYWGQGTQVTVSS | high polyreactivity
30 | QVQLVESGGGLVQAGGSLRLSCAASGSIFPRNAMGWYRQAPGKERELVASINSGGSTKYADSVKGRFTISRDNAKNTLYLQMNSLKPEDTAVYYCAAVRPWWRNKPQWPRYDYCGQGTQVTVSS | low polyreactivity
31 | HVQHVDSGAGLVQAGGSLRLSCAASGRTFVGYAMGWYRQAPGKEREFVADITYDSGSTYYADSVKGRFTISRDNAKNTVYLQMNSLKPEDTAVYYCNAKYYYWWYDVDYWGQGTQVTVSS | high polyreactivity
32 | QVQLVESGGVLVQAGGSLRLSCPASGRIYDGYAMGWYRQAPGKERELVAAINSNDGTTYYADSVKGRFTISRDNAKNTVYLQMNSLKPEDTAVYYCAKVSYNAWSYGPQMDYWGQGTQVTVSS | low polyreactivity
33 | QVHHVESGGGLVQAGGNLRLSCQASGSTFDENDMGWYRQPQGKERELVAVISICTSTNYADSVKGRFTISRDNAKNTVYLQMNSLKPEDTAVYYFDAFVPGSYLDAIVGNAFNYWGQGTQVTVSS | low polyreactivity
34 | QVQLVESGGGLVQAGGSLRLSCAASGLTFVDNAMGWYRQAPGKERELVAAISYNGGSTYYADSVKGRFTISRDNAKNTVYFQINSLKPEDTAVYYCAADISVGRYVDMDYWGQGTKVTVSS | low polyreactivity
35 | QVQLVESGGGLVQAGGSLRLSCAASGSIFAYYAMGWYRQAPGKERDLVAAISYSGDGTYYADSVKGRFTISRDNAKNTVYLQMNSLKREDTAVYYCATQIYPLDFYQGDWNDYWGQGTQVTVSS | low polyreactivity
36 | QVQLVESGGGLVQAGGSLRLSCAASGRILPYYAMGWYRQAPGKERELVAAISYSGGSTYYADSVKGRFTLSRDNGKNTFYLQMNSLKPEDTAVYYCNARPVKASYVGYNYWGQGTQVTVSS | high polyreactivity
37 | QVQLVESGGGLVQAGGSLRLSSAASGRTFSRYAMGWYRQAPGKERELVATISWSGGSTYYADSVKGRFTISRDNAKNTVYLQMNSLNPEDTAVYYCAAKGVYQYRFTKYGYWGQGTQVTVSS | high polyreactivity
38 | QVQLVESGGGLVQAGGSLRLSCAASGSTFLTNAIGWYRQATGKEREIVADITWSGGSTYYADSVKGRFTISRDNAKNTVYLQMNSLKPEDTAVYYCAVDAYSSVYLWGFVRFDYWGQGTQVTVSS | low polyreactivity
39 | QVQLVESGGGLVQAGGSLRLSCAASGRTFDVNAMGWYRQAPGKERELVAAITWDGGSTYYADSVKGRFTISRDNAKNTVYLQMNSLKPEDTALYYCAADFIQGAWWYVTYRYTYEYWGQGTQVTVSS | low polyreactivity
40 | QVQLVESGGGLVQAGGSLRLSSAASGSLFDGNAMGWYRQAPGKEREFVAAITSSDGSTSYADSVKGRFTISRDNAKNTVYLQMNSLKPEDTAVYYCNVDDYFWPGAKFDYWGQGSQVTVSS | low polyreactivity
41 | QVHLVESGGGLVQAGGSLRLTCAASGGIFHINAMGWYRQAPGKERELVAAITRTTITYADSVKGRFTISRDNAKYTVYLQMNRLKLEDSAVYYCAARDKRTPSGVEITGYDYWGQGSQVTVSS | low polyreactivity
42 | QVQLVESGGGLVQAGGSLRLSCAASGSTFKYNTMGWYRQAPGKESELVARISWSGTRTYYADSVKGRFTISRYNAKNTVYLQMNSLKPEDTAVYYCAKVSYFWSPYGYDSCGQGTQVTVSS | high polyreactivity
43 | QVQLVESGGGLVQAGGSLRLSCAASGRTSAWYAMGWYRQAPGKERELVADISGSADSTYYADSVKGRFTISRDNAKNTVYLQMNSLKPEDTAVYYCATSISTPSGDPFDYWGQGTQVTVSS | low polyreactivity
